In paper PMC11035981, “Activity assays of NnlA homologs suggest the natural product N-nitroglycine is degraded by diverse bacteria” (Beilstein Journal of Organic Chemistry, 2024):
Values belong to the molecule of their own block, whether it stands above or below them.

How the values were obtained:
Assay in all cases: SEC; analytical size exclusion, Superdex 200 Increase 10/300 GL, mobile phase 100 mM tricine, 100 mM NaCl, pH 7.5; masses from BioRad protein standards; self-association of each purified NnlA
[1] = biological target: NnlA homolog from Mycobacterium sp. 1465703.0 (Mycobacterium sp. 1465703.0)
[2] = biological target: NnlA homolog from Pseudonocardia spinosispora DSM 44797 (Pseudonocardia spinosispora DSM 44797)
[3] = biological target: NnlA homolog from Pseudovibrio denitrificans JCM 1230 (Pseudovibrio denitrificans JCM 1230)
[4] = biological target: N-nitroglycine lyase A (NnlA) from Variovorax sp. strain JS1663 (Variovorax sp. strain JS1663)
[5] = biological target: the molecule itself

Molecule: NnlA homolog from Mycobacterium sp. 1465703.0 (enzyme)
stoichiometry N [1]: 2

stoichiometry N [2]: 2
Molecule: NnlA homolog from Pseudonocardia spinosispora DSM 44797 (enzyme)

stoichiometry N [3]: 2
Molecule: NnlA homolog from Pseudovibrio denitrificans JCM 1230 (enzyme)

stoichiometry N [4]: 2
Molecule: N-nitroglycine lyase A (NnlA) from Variovorax sp. strain JS1663 (enzyme)

B1: NnlA homolog from Microbispora rosea subsp. nonnitritogenes strain NRRL B-2631 (enzyme)
chain: MTSQAEPAEAAESRIATDWGLDEWADRLIDQAGVGVTILNRHGTVMYYNKWASEHLDRRPEYIGNDVRKRHRRAVTNPRLDAMLKLFEDGRVEPVRYVARPYGKTTILVTVSPIRVDGELVGFSQIVLLKDEVQELCARFDESGRESFEREMLPNGPPAT
stoichiometry N [5]: 2
